Data from patent US20260167727A1 (FIBRO BIOMED TECHNOLOGY GUANGZHOU, published 2026).

T1: DDR2 antigen overexpressed on cells (UniProt Q16832)
T1 sequence (looked up): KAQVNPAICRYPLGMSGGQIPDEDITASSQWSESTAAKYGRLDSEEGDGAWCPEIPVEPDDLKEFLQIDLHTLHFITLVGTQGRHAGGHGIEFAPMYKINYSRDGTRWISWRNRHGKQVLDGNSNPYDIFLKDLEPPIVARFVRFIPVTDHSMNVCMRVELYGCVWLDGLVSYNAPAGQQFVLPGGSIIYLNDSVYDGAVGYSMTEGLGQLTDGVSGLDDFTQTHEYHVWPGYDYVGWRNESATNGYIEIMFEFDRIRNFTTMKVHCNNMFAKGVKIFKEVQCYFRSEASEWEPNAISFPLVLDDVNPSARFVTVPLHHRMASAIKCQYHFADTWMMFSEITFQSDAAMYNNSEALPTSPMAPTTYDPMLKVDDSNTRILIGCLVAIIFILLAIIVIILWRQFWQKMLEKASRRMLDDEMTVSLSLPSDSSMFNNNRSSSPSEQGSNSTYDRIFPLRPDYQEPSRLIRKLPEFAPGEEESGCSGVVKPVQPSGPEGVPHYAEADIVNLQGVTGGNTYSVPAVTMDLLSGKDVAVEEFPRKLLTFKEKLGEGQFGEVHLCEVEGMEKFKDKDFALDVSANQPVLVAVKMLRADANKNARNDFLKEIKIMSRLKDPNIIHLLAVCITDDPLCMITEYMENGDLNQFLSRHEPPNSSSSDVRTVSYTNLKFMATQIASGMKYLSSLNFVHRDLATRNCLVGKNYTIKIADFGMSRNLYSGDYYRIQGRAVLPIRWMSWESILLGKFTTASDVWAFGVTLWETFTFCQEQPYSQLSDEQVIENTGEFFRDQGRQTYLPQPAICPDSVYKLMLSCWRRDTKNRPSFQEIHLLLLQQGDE

T2: human DDR2 in lung tissue (human, UniProt Q16832 22-855)
T2 construct: whole, on cells; Endogenous protein in tissue slices; also called DDR2 in lung tissue of IPF patients
T2 sequence (looked up): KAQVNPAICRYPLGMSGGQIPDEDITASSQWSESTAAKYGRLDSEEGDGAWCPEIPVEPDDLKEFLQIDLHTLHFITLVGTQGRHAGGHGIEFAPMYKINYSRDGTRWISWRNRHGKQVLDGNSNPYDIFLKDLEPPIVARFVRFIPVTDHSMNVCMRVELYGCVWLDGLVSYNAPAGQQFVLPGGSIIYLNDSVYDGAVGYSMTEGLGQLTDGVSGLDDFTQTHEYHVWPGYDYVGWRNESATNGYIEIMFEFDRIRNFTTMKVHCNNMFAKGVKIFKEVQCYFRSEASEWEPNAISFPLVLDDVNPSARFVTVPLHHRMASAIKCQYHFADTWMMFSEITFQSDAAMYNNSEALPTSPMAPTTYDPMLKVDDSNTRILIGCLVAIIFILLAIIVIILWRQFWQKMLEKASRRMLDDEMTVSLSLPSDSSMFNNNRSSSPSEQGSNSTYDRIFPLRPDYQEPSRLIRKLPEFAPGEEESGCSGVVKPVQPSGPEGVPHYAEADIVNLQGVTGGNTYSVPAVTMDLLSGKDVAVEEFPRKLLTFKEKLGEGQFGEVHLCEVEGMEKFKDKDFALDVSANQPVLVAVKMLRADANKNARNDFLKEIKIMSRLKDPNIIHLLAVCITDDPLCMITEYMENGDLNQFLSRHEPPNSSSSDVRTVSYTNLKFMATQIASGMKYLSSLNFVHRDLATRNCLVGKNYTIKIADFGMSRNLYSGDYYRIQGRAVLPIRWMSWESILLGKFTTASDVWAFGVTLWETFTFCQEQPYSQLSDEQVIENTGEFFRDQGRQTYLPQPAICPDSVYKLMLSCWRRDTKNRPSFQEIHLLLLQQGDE

T3: mouse DDR2 in tissue (mouse, UniProt Q62371 22-854)
T3 construct: whole, on cells; Endogenous protein in tissue slices, not a purified protein; also called DDR2 in mouse lung tissue slices; DDR2 in the mouse retina
T3 sequence (looked up): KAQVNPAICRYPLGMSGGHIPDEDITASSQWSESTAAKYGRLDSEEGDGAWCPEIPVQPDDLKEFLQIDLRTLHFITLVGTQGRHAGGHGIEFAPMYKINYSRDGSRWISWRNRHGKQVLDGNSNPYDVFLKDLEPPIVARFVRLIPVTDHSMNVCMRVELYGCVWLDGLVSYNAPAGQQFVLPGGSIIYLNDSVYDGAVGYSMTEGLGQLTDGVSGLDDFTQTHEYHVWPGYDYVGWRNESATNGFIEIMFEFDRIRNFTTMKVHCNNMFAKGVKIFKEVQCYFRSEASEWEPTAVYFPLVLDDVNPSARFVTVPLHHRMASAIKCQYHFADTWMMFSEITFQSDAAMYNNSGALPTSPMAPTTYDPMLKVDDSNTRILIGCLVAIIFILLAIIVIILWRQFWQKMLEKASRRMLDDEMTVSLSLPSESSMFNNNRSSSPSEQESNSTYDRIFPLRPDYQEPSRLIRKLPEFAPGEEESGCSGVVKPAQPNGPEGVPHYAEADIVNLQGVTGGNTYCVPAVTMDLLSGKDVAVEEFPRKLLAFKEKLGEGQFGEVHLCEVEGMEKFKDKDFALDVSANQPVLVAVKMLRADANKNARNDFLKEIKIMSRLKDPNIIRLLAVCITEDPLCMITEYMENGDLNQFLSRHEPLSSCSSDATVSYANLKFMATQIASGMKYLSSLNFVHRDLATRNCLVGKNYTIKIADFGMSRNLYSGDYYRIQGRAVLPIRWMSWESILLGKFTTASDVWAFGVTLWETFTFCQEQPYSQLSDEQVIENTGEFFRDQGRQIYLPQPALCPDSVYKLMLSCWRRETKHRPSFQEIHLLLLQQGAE

T4: human DDR2 extracellular segment (human, UniProt Q16832 22-399)
T4 construct: range 22-399; In BLI it carried a His tag (printed 'Hig tag') and was captured on Ni-NTA; also called extracellular segment of DDR2 antigen; extracellular segment protein of DDR2 antigen
T4 sequence (looked up): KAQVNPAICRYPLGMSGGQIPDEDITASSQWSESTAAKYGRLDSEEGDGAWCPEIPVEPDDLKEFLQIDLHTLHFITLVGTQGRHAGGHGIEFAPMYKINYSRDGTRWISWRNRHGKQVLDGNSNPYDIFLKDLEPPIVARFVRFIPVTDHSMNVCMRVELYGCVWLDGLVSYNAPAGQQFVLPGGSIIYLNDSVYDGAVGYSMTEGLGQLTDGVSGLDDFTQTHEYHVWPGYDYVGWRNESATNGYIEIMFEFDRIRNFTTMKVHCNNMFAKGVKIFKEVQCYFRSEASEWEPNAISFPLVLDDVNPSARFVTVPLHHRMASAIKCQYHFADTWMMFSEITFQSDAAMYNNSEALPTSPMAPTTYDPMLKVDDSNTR


Columns and labels:
bovine serum albumin = molecular target: T5, bovine serum albumin (bovine, UniProt P02769 25-607); experiment: ELISA at one antibody amount, wells coated with antigen-DDR2 or BSA, OD450
T5 construct: also called BSA; negative control protein
Method: The Flag tag was fused into the nano-antibody gene coding sequence and five DDR2 antibodies with Flag tag were expressed and purified: TAT, 1A5, 1A12, 1B2, 1B3; Then, the extracellular segment of DDR2 antigen was used to coat at 100 ng/well→goat serum was used to block overnight→PBS was used to wash three times, anti-DDR2 (five purified DDR2 antibodies, all comprising Flag tag) 200 ng/well, 37° C. 1 h→Anti Flag (Sigma, F1804-200UG, 1 mg/ml) 1:2500, 37° C. 1 h→G&M (HRP) 1:5000, 37° C. 30 min (horseradish peroxidase labeled anti Flag antibody amplification signal, TMB staining)→TMB staining at 37° C. 30 min→1M HCl for termination; A blank control was prepared simultaneously.
+[0199]5 nano-antibodies that were expressed and purified and identified as correct in the previous step, along with the extracellular segment of DDR2 antigen and the negative control protein bovine serum albumin (BSA), were subjected to ELISA validation.

[1] = molecular target: T1, DDR2 antigen overexpressed on cells; experiment: flow cytometry on 293T DDR2 cells, anti-His-488 secondary; control on 293T DDR2 R3 0.94%; on parental 293T cells 1A1-1A12 R3 0.44% and control R3 0.46%
[2] = molecular target: T2, human DDR2 in lung tissue; experiment: imaging of lung tissue slices of IPF patients and normal donors stained with ICG labeled 1A12
Method: Lung tissues from normal donors and patients with idiopathic pulmonary fibrosis (IPF) were cut to a thickness of 600 μm in vitro, with high expression of DDR2 in IPF patients' lung tissues and low or no expression of DDR2 in normal donors' lungs. The Normal group was used as control, and lung tissue slices from IPF patients were used as the experimental group. After staining with ICG labeled DDR2 nano-antibody 1A12, in vitro live imaging was performed.

mouse DDR2 in tissue = molecular target: T3, mouse DDR2 in tissue; experiment: near-infrared imaging of mouse lung tissue slices stained with ICG labeled 1A12 (untreated, bleomycin, mTGF-β)
Method: Fresh lung tissue from normal mice was cut into a thickness of […]. One was used as an untreated control, one was induced with bleomycin, and the other one was induced with mTGF-β cytokines, both for 72 hours (both treatment groups were able to promote DDR2 expression). Then, each group was stained with ICG labeled DDR2 nano-antibody 1A12 (1 ug per sample) for 30 minutes, followed by washing multiple times with PBS to remove non-specific staining. Then, imaging was performed using a live imaging device.

[3] = molecular target: T4, human DDR2 extracellular segment; experiment: ELISA, plate coated with DDR2 extracellular segment, Flag-tagged nano-antibody titrated, anti-Flag then HRP secondary, TMB, OD450; set-up: unit not given here

T5 sequence (P02769 25-607 limits assumed): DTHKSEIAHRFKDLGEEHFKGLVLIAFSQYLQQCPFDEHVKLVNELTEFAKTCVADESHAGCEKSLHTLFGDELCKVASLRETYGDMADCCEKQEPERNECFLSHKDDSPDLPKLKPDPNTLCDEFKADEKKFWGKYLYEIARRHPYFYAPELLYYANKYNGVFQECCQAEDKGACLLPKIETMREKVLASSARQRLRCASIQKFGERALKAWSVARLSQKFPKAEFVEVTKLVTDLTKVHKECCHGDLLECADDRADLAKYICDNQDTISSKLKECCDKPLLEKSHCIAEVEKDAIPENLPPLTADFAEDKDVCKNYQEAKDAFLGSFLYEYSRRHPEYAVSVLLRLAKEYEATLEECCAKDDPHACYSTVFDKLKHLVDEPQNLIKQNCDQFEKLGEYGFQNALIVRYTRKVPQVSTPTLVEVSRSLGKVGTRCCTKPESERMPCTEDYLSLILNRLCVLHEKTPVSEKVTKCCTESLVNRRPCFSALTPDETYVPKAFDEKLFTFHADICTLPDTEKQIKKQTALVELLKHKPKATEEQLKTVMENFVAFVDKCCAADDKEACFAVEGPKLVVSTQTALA

Row | Binder | binding result (bovine serum albumin) | also measured
1 | anti-DDR2 nano-antibody 1A5 (VHH, also called 1A5-VHH) VHH: EVQLVESGGGLVQPGGSLRLSCAASGITLSLYIMGWFRQAPGKGRELVAAISRTGGSTYYPDSVEGRFTISRDNAKRMVYLQMNSLRAEDTAVYYCAADFYGNATLGYNYWGQGTQVTVSS | no binding | 
2 | heterodimeric anti-DDR2 nano-antibody 1A1-1A12 (bispecific antibody, part only; not given: His tag, not shown: small tags and cut ends) chain, part: EVQLVESGGGLVQPGGSLRLSCAASGYILSPNVMGWFRQAPGKGRELVAAISWGDGRTYYPDSVEGRFTISRDNAKRMVYLQMNSLRAEDTAVYYCAASRKGYPSTRSDPYNYWGQGTQVTVSSGGGSGGGSGGGSEVQLVESGGGLVQPGGSLRLSCAASGRIFSINVMGWFRQAPGKGRELVAAINTRGGSTYYPDSVEGRFTISRDNAKRMVYLQMNSLRAEDTAVYYCAASRKGYPSTRSDPYDYWGQGTQVTVSS |  | R3, percent of cells in the FITC-H positive gate [1]: 33%
3 | ICG labeled DDR2 nano-antibody 1A12 (VHH, indocyanine green (ICG) coupled with ICG-NHS; sites not stated, also called ICG labeled 1A12 nano-antibody; Nb-DDR2 labeled with indocyanine green) VHH: EVQLVESGGGLVQPGGSLRLSCAASGYILSPNVMGWFRQAPGKGRELVAAISWGDGRTYYPDSVEGRFTISRDNAKRMVYLQMNSLRAEDTAVYYCAASRKGYPSTRSDPYNYWGQGTQVTVSS |  | binding result [2]: binds; binding result (mouse DDR2 in tissue): binds
4 | anti-DDR2 nano-antibody 1A1 (VHH, Expressed in E. coli BL21(DE3); also called 1A1-VHH) VHH: EVQLVESGGGLVQPGGSLRLSCAASGRIFSINVMGWFRQAPGKGRELVAAINTRGGSTYYPDSVEGRFTISRDNAKRMVYLQMNSLRAEDTAVYYCAASRKGYPSTRSDPYDYWGQGTQVTVSS | no binding | 
5 | anti-DDR2 nano-antibody 1A12 (VHH, also called 1A12-VHH; DDR2 antibody 1A12) VHH: EVQLVESGGGLVQPGGSLRLSCAASGYILSPNVMGWFRQAPGKGRELVAAISWGDGRTYYPDSVEGRFTISRDNAKRMVYLQMNSLRAEDTAVYYCAASRKGYPSTRSDPYNYWGQGTQVTVSS | no binding | EC50 (read off the curve) [3]: ~1

The next lines start with results.

Row | binding result (bovine serum albumin) | Binder | also measured
6 | no binding | anti-DDR2 nano-antibody 1B3 (VHH, also called 1B3-VHH) VHH: EVQLVESGGGLVQPGGSLRLSCAASGDTFSYYVMGWFRQAPGKGRELVAAISRTGGSTYYPDSVEGRFTISRDNAKRMVYLQMNSLRAEDTAVYYCAADPYISGTLGYNYWGQGTQVTVSS | 
7 | no binding | anti-DDR2 nano-antibody 1B2 (VHH, also called 1B2-VHH) VHH: EVQLVESGGGLVQPGGSLRLSCAASGYIFSIYAMGWFRQAPGKGRELVARISWGDGSTWYPDSVEGRFTISRDNAKRMVYLQMNSLRAEDTAVYYCAAAIKGRGVVTQLGYNYWGQGTQVTVSS | 
